Measured values published in US20260286002 (published 2026).
Read-outs that look alike come from different tables or passages of the source.

Key:
human CD39-His [1] = target: T1, human CD39-His (human, UniProt P49961); assay: BLI
T1 chain: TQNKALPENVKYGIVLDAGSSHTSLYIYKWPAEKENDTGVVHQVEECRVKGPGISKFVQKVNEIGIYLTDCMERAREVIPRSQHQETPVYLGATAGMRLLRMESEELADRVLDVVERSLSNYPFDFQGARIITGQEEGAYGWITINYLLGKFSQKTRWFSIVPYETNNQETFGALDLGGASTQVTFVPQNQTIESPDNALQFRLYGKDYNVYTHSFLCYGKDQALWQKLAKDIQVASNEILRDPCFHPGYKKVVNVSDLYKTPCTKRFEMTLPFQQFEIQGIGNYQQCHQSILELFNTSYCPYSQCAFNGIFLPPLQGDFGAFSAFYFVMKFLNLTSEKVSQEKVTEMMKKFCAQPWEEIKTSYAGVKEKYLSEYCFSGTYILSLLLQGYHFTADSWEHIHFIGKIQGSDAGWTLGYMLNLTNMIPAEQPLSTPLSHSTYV

human CD39-His [2] = target: T1, human CD39-His; assay: BLI

B1: B391-F04 (designed binder)
chain: QLQLVESGGGLVQPGGSLRLSCAASGFTFSNLGMSWYRQAPGKAREWVGSISASGDYTTYQNSVKGRFTISRDNAKNTLYLQMNNLKPEDTGVYYCTRRVDSYPRGQGTQVTVSS
Kd (human CD39-His [1]): 0.255 nM | Kd (human CD39-His [2]): 0.398 nM
